The target in assay [1] is secreted alkaline phosphatase with the wild type BACE cleavage site of amyloid precursor and the KDEL sequence (UniProt P05187). In words: cell-based or functional assay.
Assay [2] has as its target secreted alkaline phosphatase fused to the Swedish mutation of the BACE cleavage site in APP (…) and the KDEL sequence (UniProt P05187). Description: cell-based or functional assay.

Turning to BACE (beta-site APP-cleaving enzyme), in assay [1], the alkaline phosphatase activity in the conditioned media of transfected neuro-2 cells (chemiluminescence, photons) is 83700 photons and the alkaline phosphatase activity in the conditioned media of transfected neuro-2 cells, percent of control (no KDEL) is 1.6 % of control. In assay [2], the alkaline phosphatase activity in the conditioned media of transfected neuro-2 cells (chemiluminescence, photons) came out at 3.46e+06 photons and the efficiency of secretion: alkaline phosphatase activity in the conditioned media of transfected neuro-2 cells, percent of control (no KDEL) is 66 % of control.

Values taken from patent US20030147810A1.
